Residue numbers refer to the chain shown, from its start. Like-named read-outs stand apart in the source and are kept apart here.
T1: rGyr_hel (reverse gyrase helicase-like domain) (Thermotoga maritima, UniProt O51934 59-541)
T1 sequence: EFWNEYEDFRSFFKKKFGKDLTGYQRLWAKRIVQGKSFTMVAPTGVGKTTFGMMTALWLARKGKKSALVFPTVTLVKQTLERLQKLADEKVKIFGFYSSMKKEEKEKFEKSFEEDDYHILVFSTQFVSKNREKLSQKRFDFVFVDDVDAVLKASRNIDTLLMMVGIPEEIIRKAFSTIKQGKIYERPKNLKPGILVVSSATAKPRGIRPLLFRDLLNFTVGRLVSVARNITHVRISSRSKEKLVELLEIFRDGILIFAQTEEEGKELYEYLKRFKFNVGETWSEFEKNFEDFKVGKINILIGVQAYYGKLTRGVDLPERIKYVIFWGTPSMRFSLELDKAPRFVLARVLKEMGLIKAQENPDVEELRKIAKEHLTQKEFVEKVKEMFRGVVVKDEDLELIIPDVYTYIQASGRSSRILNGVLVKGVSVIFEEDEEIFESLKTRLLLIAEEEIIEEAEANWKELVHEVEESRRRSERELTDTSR

T2: rGyr_hel K106Q (Thermotoga maritima, UniProt O51934 59-541, K106Q)
T2 sequence: T1 sequence with K48Q

T3: rGyr_fl K106Q/Y851F (Thermotoga maritima, UniProt O51934 1-1104, K106Q;Y851F)
T3 sequence: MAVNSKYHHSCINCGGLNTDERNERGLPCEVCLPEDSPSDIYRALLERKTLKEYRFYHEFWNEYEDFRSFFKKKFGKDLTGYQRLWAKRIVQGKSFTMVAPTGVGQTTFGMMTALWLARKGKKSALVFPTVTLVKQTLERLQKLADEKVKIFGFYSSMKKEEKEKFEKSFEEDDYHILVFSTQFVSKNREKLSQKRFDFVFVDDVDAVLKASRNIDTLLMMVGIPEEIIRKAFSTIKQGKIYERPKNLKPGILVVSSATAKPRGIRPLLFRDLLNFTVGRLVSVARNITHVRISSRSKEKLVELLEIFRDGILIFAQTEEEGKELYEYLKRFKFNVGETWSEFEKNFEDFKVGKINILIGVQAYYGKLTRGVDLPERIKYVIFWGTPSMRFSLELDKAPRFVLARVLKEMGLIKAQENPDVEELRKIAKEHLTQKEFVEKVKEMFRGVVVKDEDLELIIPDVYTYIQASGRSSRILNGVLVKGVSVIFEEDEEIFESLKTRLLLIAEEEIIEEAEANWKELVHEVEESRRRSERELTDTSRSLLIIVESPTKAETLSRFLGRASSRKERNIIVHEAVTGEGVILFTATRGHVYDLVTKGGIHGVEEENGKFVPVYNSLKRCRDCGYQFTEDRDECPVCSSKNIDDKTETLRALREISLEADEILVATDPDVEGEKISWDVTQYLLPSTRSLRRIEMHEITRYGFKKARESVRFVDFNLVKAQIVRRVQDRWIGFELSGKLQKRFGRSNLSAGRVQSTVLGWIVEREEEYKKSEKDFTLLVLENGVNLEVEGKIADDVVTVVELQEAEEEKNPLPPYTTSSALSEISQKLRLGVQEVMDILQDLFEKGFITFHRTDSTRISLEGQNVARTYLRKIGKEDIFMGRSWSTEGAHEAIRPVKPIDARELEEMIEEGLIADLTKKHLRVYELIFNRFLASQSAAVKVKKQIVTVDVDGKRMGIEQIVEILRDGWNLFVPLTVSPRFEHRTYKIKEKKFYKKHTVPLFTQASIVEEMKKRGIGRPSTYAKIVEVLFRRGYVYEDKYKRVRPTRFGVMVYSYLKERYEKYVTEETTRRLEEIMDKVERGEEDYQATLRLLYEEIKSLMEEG

B1: 60-base ssDNA (ssDNA)
DNA: AAGCCAAGCTTCTAGAGTCAGCCCGTGATATTCATTACTTCTTATCCTAGGATCCCCGTT
B2: 60 bp dsDNA (dsDNA)
DNA 1: B1 DNA
DNA 2: AACGGGGATCCTAGGATAAGAAGTAATGAATATCACGGGCTGACTCTAGAAGCTTGGCTT

Assays:
Assay in all cases: fluorescence anisotropy
[1] = biological target: T1, rGyr_hel (reverse gyrase helicase-like …)
[2] = biological target: T1, rGyr_hel (reverse gyrase helicase-like …); remark: listed apart in the source
[3] = biological target: T1, rGyr_hel (reverse gyrase helicase-like …); remark: listed apart in the source
rGyr_hel K106Q = biological target: T2, rGyr_hel K106Q
[4] = biological target: T1, rGyr_hel (reverse gyrase helicase-like …); remark: listed apart in the source
rGyr_fl K106Q/Y851F = biological target: T3, rGyr_fl K106Q/Y851F

Binder	Kd [1] [nM]	Kd [2] [nM]	Kd [3] [nM]	Kd (rGyr_hel K106Q) [nM]	Kd [4] [nM]	Kd (rGyr_fl K106Q/Y851F) [nM]
B1	310 ± 40	460 ± 30	920 ± 210	180 ± 30	200 ± 10	–
B2	–	–	–	–	–	710 ± 110

From publication PMC2566858 (Nucleic Acids Research, 2008)
